Columns and labels:
[1] = biological target: HBsAg-gp120 hybrid virus-like particles, gp120 89.6 with loop C deletion (424-432 …, beta 20-21 loop) (hepatitis B virus; HIV-1 strain 89.6); test: ELISA, gp120-HBsAg particles coated on the plate; mean of six experiments
[2] = biological target: HBsAg-gp120 hybrid virus-like particles, gp120 89.6 with loop C deletion (424-432 …, beta 20-21 loop) (hepatitis B virus; HIV-1 strain 89.6); test: ELISA, gp120-HBsAg particles coated on the plate
[3] = biological target: HBsAg-gp120 hybrid virus-like particles, gp120 89.6 with loop C deletion (424-432 …, beta 20-21 loop) (hepatitis B virus; HIV-1 strain 89.6); test: ELISA, half maximal binding compared, gp120-HBsAg particles coated on the plate

Substance	fold increase of ELISA peak OD against 89.6 wild type [1] [fold]	fold increase of binding against 89.6 wild type [2] [fold]	peak OD as percent of the IIIB value (% of the IIIB value) [2]	shift in apparent affinity relative to 89.6 wild type [3] [fold]
monoclonal IgG1 b12 (antibody)	2.6	3	80 to 100	
monoclonal F105 (antibody)	7.1	> 10		> 100
